# T1: slp4 peptide TYLLPDKSRQGKRKTSIKRD (SEQ ID NO:153) (not fully specified)
# T1 chain: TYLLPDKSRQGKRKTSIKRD
# T2: plectin peptide PLKEKKRERKTSSKSSVRKR (SEQ ID NO:125) (not fully specified)
# T2 chain: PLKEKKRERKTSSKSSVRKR
# T3: p164-RhoGEF peptide PRLIRRGSKKRPAR (SEQ ID NO:124) (not fully specified)
# T3 chain: PRLIRRGSKKRPAR
# T4: PARIS1 peptide RELEQLKAEYLERRASRRRA (SEQ ID NO:148) (not fully specified)
# T4 chain: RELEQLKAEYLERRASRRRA
# T5: PARIS1 peptide EYLERRASRRRAV (SEQ ID NO:89) (not fully specified)
# T5 chain: EYLERRASRRRAV
# T6: LIMK-2 peptide LRRRSLRRSNSISKSPGP (SEQ ID NO:121) (not fully specified)
# T6 chain: LRRRSLRRSNSISKSPGP
# T7: ubiquitin specific protease 8 peptide RARRDSLKKIEIW (SEQ ID NO:136) (not fully specified)
# T7 chain: RARRDSLKKIEIW
# T8: phospholemman peptide EEGTFRSSIRRLSTRRR (SEQ ID NO:116) (not fully specified)
# T8 chain: EEGTFRSSIRRLSTRRR
# T9: GABA A receptor beta 2 peptide ERHVAQKKSRLRRRASQLKI (SEQ ID NO:142) (not fully specified)
# T9 chain: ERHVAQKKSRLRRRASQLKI
# T10: MARCKS peptide KKKKKRFSFKKSFKL (SEQ ID NO:80) (not fully specified)
# T10 chain: KKKKKRFSFKKSFKL
# T11: … peptide KKPFKLSGLSFKRNRKE (SEQ ID NO:88) (not fully specified)
# T11 chain: KKPFKLSGLSFKRNRKE
# T12: ERN1 peptide KLAVGRHSFSRRSGV (SEQ ID NO:94) (not fully specified)
# T12 chain: KLAVGRHSFSRRSGV
# T13: SDPR peptide EKIKRSSLKKVDSLKK (SEQ ID NO:104) (not fully specified)
# T13 chain: EKIKRSSLKKVDSLKK
# T14: MARCKS peptide PSPSNETPKKKKKRFSFKKS (SEQ ID NO:157) (not fully specified)
# T14 chain: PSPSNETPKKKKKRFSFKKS
# T15: CREB1 peptide EILSRRPSYRKILND (SEQ ID NO:106) (not fully specified)
# T15 chain: EILSRRPSYRKILND
# T16: DGKI peptide NRKKKRTSFKRKA (SEQ ID NO:79) (not fully specified)
# T16 chain: NRKKKRTSFKRKA
# T17: dag kinase zeta peptide KKKKRASFKRKSSKKG (SEQ ID NO:114) (not fully specified)
# T17 chain: KKKKRASFKRKSSKKG
# T18: NCF1 peptide GAPPRRSSIRNAH (SEQ ID NO:101) (not fully specified)
# T18 chain: GAPPRRSSIRNAH
# T19: MGC2941 peptide RPTPGDGEKRSRIKKSKKRK (SEQ ID NO:139) (not fully specified)
# T19 chain: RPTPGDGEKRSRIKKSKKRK
# T20: AKAP12 peptide AGWRKKTSFRKPKED (SEQ ID NO:99) (not fully specified)
# T20 chain: AGWRKKTSFRKPKED
# T21: SMARCA5 peptide MAQIERGEARIQRRISIKKA (SEQ ID NO:166) (not fully specified)
# T21 chain: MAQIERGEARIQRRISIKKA
# T22: PKD1 peptide RVVQSVKHTKRKSSTVMK (SEQ ID NO:149) (not fully specified)
# T22 chain: RVVQSVKHTKRKSSTVMK
# T23: p164-RhoGEF peptide PRLIRRGSKKRPAR (SEQ ID NO:82) (not fully specified)
# T23 chain: PRLIRRGSKKRPAR
# T24: M1 muscarinic receptor peptide RWDKRRWRKIPKRPGSVHRT (SEQ ID NO:155) (not fully specified)
# T24 chain: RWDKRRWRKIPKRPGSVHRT
# T25: Urotensin-2 receptor peptide LYARLARAYRRSQRASFKRA (SEQ ID NO:159) (not fully specified)
# T25 chain: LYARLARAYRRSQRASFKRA
# T26: Myt1 kinase peptide PPRTPGWHQLQPRRVSFRGE (SEQ ID NO:163) (not fully specified)
# T26 chain: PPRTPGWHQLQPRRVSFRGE
# T27: HERG peptide TELEGGFSRQRKRKLSFRRR (SEQ ID NO:140) (not fully specified)
# T27 chain: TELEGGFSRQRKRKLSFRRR
# T28: PARIS1 peptide EYLERRASRRRAV (SEQ ID NO:138) (not fully specified)
# T28 chain: EYLERRASRRRAV
# T29: dag kinase iota peptide NRKKKRTSFKRKA (SEQ ID NO:115) (not fully specified)
# T29 chain: NRKKKRTSFKRKA
# T30: DGKZ peptide KKKKRASFKRKSSKKG (SEQ ID NO:77) (not fully specified)
# T30 chain: KKKKRASFKRKSSKKG
# T31: dag kinase iota peptide PQNSLKASNRKKKRTSFKRK (SEQ ID NO:151) (not fully specified)
# T31 chain: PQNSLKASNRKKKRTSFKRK
# B1: PKC-theta (protein)
# chain: MSPFLRIGLSNFDCGSCQSCQGEAVNPYCAVLVKEYVESENGQMYIQKKPTMYPPWDSTFDAHINKGRVMQIIVKGKNVDLISETTVELYSLAERCRKNNGKTEIWLELKPQGRMLMNARYFLEMSDTKDMNEFETEGFFALHQRRGAIKQAKVHHVKCHEFTATFFPQPTFCSVCHEFVWGLNKQGYQCRQCNAAIHKKCIDKVIAKCTGSAINSRETMFHKERFKIDMPHRFKVYNYKSPTFCEHCGTLLWGLARQGLKCDACGMNVHHRCQTKVANLCGINQKLMAEALAMIESTQQARCLRDTEQIFREGPVEIGLPCSIKNEARPPCLPTPGKREPQGISWESPLDEVDKMCHLPEPELNKERPSLQIKLKIEDFILHKMLGKGSFGKVFLAEFKKTNQFFAIKALKKDVVLMDDDVECTMVEKRVLSLAWEHPFLTHMFCTFQTKENLFFVMEYLNGGDLMYHIQSCHKFDLSRATFYAAEIILGLQFLHSKGIVYRDLKLDNILLDKDGHIKIADFGMCKENMLGDAKTNTFCGTPDYIAPEILLGQKYNHSVDWWSFGVLLYEMLIGQSPFHGQDEEELFHSIRMDNPFYPRWLEKEAKDLLVKLFVREPEKRLGVRGDIRQHPLFREINWEELERKEIDPPFRPKVKSPFDCSNFDKEFLNEKPRLSFADRALINSMDQNMFRNFSFMNPGMERLIS
# Legend:
# [1] = molecular target: T1, slp4 peptide TYLLPDKSRQGKRKTSIKRD (SEQ …)
# [2] = molecular target: T2, plectin peptide PLKEKKRERKTSSKSSVRKR …
# [3] = molecular target: T3, p164-RhoGEF peptide PRLIRRGSKKRPAR (SEQ …)
# [4] = molecular target: T4, PARIS1 peptide RELEQLKAEYLERRASRRRA …
# [5] = molecular target: T5, PARIS1 peptide EYLERRASRRRAV (SEQ ID …)
# [6] = molecular target: T6, LIMK-2 peptide LRRRSLRRSNSISKSPGP (SEQ …)
# [7] = molecular target: T7, ubiquitin specific protease 8 peptide …
# [8] = molecular target: T8, phospholemman peptide EEGTFRSSIRRLSTRRR …
# [9] = molecular target: T9, GABA A receptor beta 2 peptide …
# [10] = molecular target: T10, MARCKS peptide KKKKKRFSFKKSFKL (SEQ ID …)
# [11] = molecular target: T11, … peptide KKPFKLSGLSFKRNRKE (SEQ ID …)
# [12] = molecular target: T12, ERN1 peptide KLAVGRHSFSRRSGV (SEQ ID …)
# [13] = molecular target: T13, SDPR peptide EKIKRSSLKKVDSLKK (SEQ ID …)
# [14] = molecular target: T14, MARCKS peptide PSPSNETPKKKKKRFSFKKS …
# [15] = molecular target: T15, CREB1 peptide EILSRRPSYRKILND (SEQ ID …)
# [16] = molecular target: T16, DGKI peptide NRKKKRTSFKRKA (SEQ ID …)
# [17] = molecular target: T17, dag kinase zeta peptide …
# [18] = molecular target: T18, NCF1 peptide GAPPRRSSIRNAH (SEQ ID …)
# [19] = molecular target: T19, MGC2941 peptide RPTPGDGEKRSRIKKSKKRK …
# [20] = molecular target: T20, AKAP12 peptide AGWRKKTSFRKPKED (SEQ ID …)
# [21] = molecular target: T21, SMARCA5 peptide MAQIERGEARIQRRISIKKA …
# [22] = molecular target: T22, PKD1 peptide RVVQSVKHTKRKSSTVMK (SEQ ID …)
# [23] = molecular target: T23, p164-RhoGEF peptide PRLIRRGSKKRPAR (SEQ …)
# [24] = molecular target: T24, M1 muscarinic receptor peptide …
# [25] = molecular target: T25, Urotensin-2 receptor peptide …
# [26] = molecular target: T26, Myt1 kinase peptide …
# [27] = molecular target: T27, HERG peptide TELEGGFSRQRKRKLSFRRR (SEQ …)
# [28] = molecular target: T28, PARIS1 peptide EYLERRASRRRAV (SEQ ID …)
# [29] = molecular target: T29, dag kinase iota peptide NRKKKRTSFKRKA …
# [30] = molecular target: T30, DGKZ peptide KKKKRASFKRKSSKKG (SEQ ID …)
# [31] = molecular target: T31, dag kinase iota peptide …
protein,measurement,setting,value
B1,"in vitro phosphorylation, 1 uM peptide (% of best substrate)",[1],22
same,"in vitro phosphorylation, 10 uM peptide (% of best substrate)",[1],18
same,"in vitro phosphorylation, 1 uM peptide (% of best substrate)",[2],39
same,"in vitro phosphorylation, 10 uM peptide (% of best substrate)",[2],100
same,"in vitro phosphorylation, 1 uM peptide (% of best substrate)",[3],53
same,"in vitro phosphorylation, 10 uM peptide (% of best substrate)",[3],57
same,"in vitro phosphorylation, 1 uM peptide (% of best substrate)",[4],34
same,"in vitro phosphorylation, 10 uM peptide (% of best substrate)",[4],34
same,in vitro phosphorylation (% of best substrate),[5],60
same,Peptide phosphorylation by PKC-theta,[6],57
same,"in vitro phosphorylation, 1 uM peptide (% of best substrate)",[6],51
same,"in vitro phosphorylation, 10 uM peptide (% of best substrate)",[6],57
same,"in vitro phosphorylation, 1 uM peptide (% of best substrate)",[7],42
same,"in vitro phosphorylation, 10 uM peptide (% of best substrate)",[7],28
same,"in vitro phosphorylation, 1 uM peptide (% of best substrate)",[8],83
same,"in vitro phosphorylation, 10 uM peptide (% of best substrate)",[8],78
same,"in vitro phosphorylation, 1 uM peptide (% of best substrate)",[9],28
same,"in vitro phosphorylation, 10 uM peptide (% of best substrate)",[9],37
same,in vitro phosphorylation (% of best substrate),[10],63
same,in vitro phosphorylation (% of best substrate),[11],38
same,in vitro phosphorylation (% of best substrate),[12],86
same,in vitro phosphorylation (% of best substrate),[13],25
same,"in vitro phosphorylation, 1 uM peptide (% of best substrate)",[14],20
same,"in vitro phosphorylation, 10 uM peptide (% of best substrate)",[14],23
same,in vitro phosphorylation (% of best substrate),[15],19
same,in vitro phosphorylation (% of best substrate),[16],33
same,"in vitro phosphorylation, 1 uM peptide (% of best substrate)",[17],100
same,"in vitro phosphorylation, 10 uM peptide (% of best substrate)",[17],86
same,in vitro phosphorylation (% of best substrate),[18],29
same,"in vitro phosphorylation, 1 uM peptide (% of best substrate)",[19],31
same,"in vitro phosphorylation, 10 uM peptide (% of best substrate)",[19],17
same,in vitro phosphorylation (% of best substrate),[20],25
same,"in vitro phosphorylation, 1 uM peptide (% of best substrate)",[21],13
same,"in vitro phosphorylation, 10 uM peptide (% of best substrate)",[21],13
same,"in vitro phosphorylation, 1 uM peptide (% of best substrate)",[22],13
same,"in vitro phosphorylation, 10 uM peptide (% of best substrate)",[22],14
same,in vitro phosphorylation (% of best substrate),[23],49
same,"in vitro phosphorylation, 1 uM peptide (% of best substrate)",[24],23
same,"in vitro phosphorylation, 10 uM peptide (% of best substrate)",[24],26
same,"in vitro phosphorylation, 1 uM peptide (% of best substrate)",[25],21
same,"in vitro phosphorylation, 10 uM peptide (% of best substrate)",[25],17
same,"in vitro phosphorylation, 1 uM peptide (% of best substrate)",[26],14
same,"in vitro phosphorylation, 10 uM peptide (% of best substrate)",[26],11
same,"in vitro phosphorylation, 1 uM peptide (% of best substrate)",[27],25
same,"in vitro phosphorylation, 10 uM peptide (% of best substrate)",[27],35
same,"in vitro phosphorylation, 1 uM peptide (% of best substrate)",[28],34
same,"in vitro phosphorylation, 10 uM peptide (% of best substrate)",[28],39
same,"in vitro phosphorylation, 1 uM peptide (% of best substrate)",[29],89
same,"in vitro phosphorylation, 10 uM peptide (% of best substrate)",[29],77
same,in vitro phosphorylation (% of best substrate),[30],74
same,"in vitro phosphorylation, 1 uM peptide (% of best substrate)",[31],25
same,"in vitro phosphorylation, 10 uM peptide (% of best substrate)",[31],19

# Source: patent US20050064507
